To fix the notation:
T1: Mical1 MO-CH-LIM (residues 1-781) (human, UniProt Q8TDZ2 1-781)
T1 sequence: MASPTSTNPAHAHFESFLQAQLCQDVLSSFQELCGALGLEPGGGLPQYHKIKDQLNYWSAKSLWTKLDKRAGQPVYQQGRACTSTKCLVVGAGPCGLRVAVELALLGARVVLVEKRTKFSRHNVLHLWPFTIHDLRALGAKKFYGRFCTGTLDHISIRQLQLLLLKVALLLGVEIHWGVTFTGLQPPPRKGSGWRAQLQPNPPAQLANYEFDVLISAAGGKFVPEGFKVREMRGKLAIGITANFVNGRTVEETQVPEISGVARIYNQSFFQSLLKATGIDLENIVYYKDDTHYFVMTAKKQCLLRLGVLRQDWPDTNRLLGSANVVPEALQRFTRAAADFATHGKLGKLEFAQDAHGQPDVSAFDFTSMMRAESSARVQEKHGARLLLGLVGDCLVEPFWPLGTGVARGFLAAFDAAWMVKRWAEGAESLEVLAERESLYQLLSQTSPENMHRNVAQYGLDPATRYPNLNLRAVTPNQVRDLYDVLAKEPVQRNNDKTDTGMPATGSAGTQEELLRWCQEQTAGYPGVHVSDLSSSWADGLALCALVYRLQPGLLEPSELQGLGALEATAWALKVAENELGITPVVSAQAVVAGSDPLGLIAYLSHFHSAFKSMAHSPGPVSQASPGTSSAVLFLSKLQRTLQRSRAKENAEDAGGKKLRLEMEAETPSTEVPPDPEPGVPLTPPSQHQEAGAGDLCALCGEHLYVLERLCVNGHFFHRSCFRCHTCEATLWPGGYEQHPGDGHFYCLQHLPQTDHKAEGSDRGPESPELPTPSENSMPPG

T2: Rab8a_(1-176) (human, UniProt P61006 1-176)
T2 sequence: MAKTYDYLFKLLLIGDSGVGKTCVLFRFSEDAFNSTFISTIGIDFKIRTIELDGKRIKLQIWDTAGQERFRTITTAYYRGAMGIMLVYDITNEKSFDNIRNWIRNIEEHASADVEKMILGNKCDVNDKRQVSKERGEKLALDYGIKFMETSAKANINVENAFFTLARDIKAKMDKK

B1: Rab15_(1-176) (natural protein)
chain: MAKQYDVLFRLLLIGDSGVGKTCLLCRFTDNEFHSSHISTIGVDFKMKTIEVDGIKVRIQIWDTAGQERYQTITKQYYRRAQGIFLVYDISSERSYQHIMKWVSDVDEYAPEGVQKILIGNKADEEQKRQVGREQGQQLAKEYGMDFYETSACTNLNIKESFTRLTELVLQAHRKE
B2: bMERB K918A_E921A (domain or fragment)
chain: AEEAMKRFCKAQTIQRRLNEIEAALRELEAEGVKLELALRRQSSSPEQQKKLWVGQLLQLVDKKNSLVAEEAELMITVQELNLEEKQWQLDQELRGYMNREENLKTAADRQAEDQVLRKLVDLVNQRDALIRFQEERRLSELALGTGAQG
B3: bMERB V1038A (domain or fragment)
chain: B2 chain with A1K, A4E, V121A
B4: Mical1 bMERB domain (residues 918-1067) (domain or fragment)
chain: B2 chain with A1K, A4E
B5: bMERB I1048A (domain or fragment)
chain: B2 chain with A1K, A4E, I131A
B6: bMERB L1011S (domain or fragment)
chain: B2 chain with A1K, A4E, L94S
B7: bMERB R1044A (domain or fragment)
chain: B2 chain with A1K, A4E, R127A
B8: bMERB_(L1047A_F1050A) (domain or fragment)
chain: B2 chain with A1K, A4E, L130A, F133A
B9: bMERB V1041A (domain or fragment)
chain: B2 chain with A1K, A4E, V124A
B10: bMERB F925A (domain or fragment)
chain: B2 chain with A1K, A4E, F8A
B11: bMERB_(V985A) (domain or fragment)
chain: B2 chain with A1K, A4E, V68A
B12: bMERB E939A (domain or fragment)
chain: B2 chain with A1K, A4E, E22A
B13: bMERB L956S (domain or fragment)
chain: B2 chain with A1K, A4E, L39S
B14: bMERB_(V1041A_I1048A) (domain or fragment)
chain: B2 chain with A1K, A4E, V124A, I131A
B15: bMERB L974A_L975A (domain or fragment)
chain: B2 chain with A1K, A4E, L57A, L58A
B16: bMERB_(M992A_I993A) (domain or fragment)
chain: B2 chain with A1K, A4E, M75A, I76A
B17: bMERB W970A (domain or fragment)
chain: B2 chain with A1K, A4E, W53A
B18: bMERB L977A_V978A (domain or fragment)
chain: B2 chain with A1K, A4E, L60A, V61A
B19: Rab10_(1-175) (natural protein)
chain: MAKKTYDLLFKLLLIGDSGVGKTCVLFRFSDDAFNTTFISTIGIDFKIKTVELQGKKIKLQIWDTAGQERFHTITTSYYRGAMGIMLVYDITNGKSFENISKWLRNIDEHANEDVERMLLGNKCDMDDKRVVPKGKGEQIAREHGIRFFETSAKANINIEKAFLTLAEDILRKTP

The target in assay [1] is Mical1 MO-CH-LIM (residues 1-781) (human) (UniProt Q8TDZ2). The assay is described as follows: ITC.
Assay [2] has as its target B4. The assay is described as follows: ITC.
The target in assay [3] is T1, Mical1 MO-CH-LIM (residues 1-781). Description: ITC. For orientation: Isothermal titration calorimetry measures the heat released or taken up as one component is titrated into another.
Assay [4] concerns the target T2, Rab8a_(1-176). Description: SEC.
The assay “Rab10_(1-175)” concerns the target B19. The assay is described as follows: SEC. A general note: In gel filtration, larger molecules generally elute earlier.
The assay “Rab15_(1-176)” addresses B1. The assay is described as follows: SEC.
For assay [5], the target named is T2, Rab8a_(1-176). The assay is described as follows: ITC.

Residue numbers refer to the chain shown, from its start. Names may count otherwise.

With “Mical1 bMERB domain (residues 918-1067) (from UniProt Q8TDZ2 918-1067) (domain or fragment)”, in assay [1], the Kd (as a rule, a measure of binding affinity in units of concentration) was determined as 2700 nM and the stoichiometry N (as a rule, the number of molecules, sites or subunits per partner or assembly) was determined as 1. Consider B1, for which, in assay [2], the “KD of the high-affinity site (Ct-RBS2)” value is 2.5 nM, the “KD of the low-affinity site (Nt-RBS1)” value turned out to be 2910 nM and the “stoichiometry N” value came out at 2. For the molecule B2, in assay [3], the “fold reduction in affinity against wild-type bMERB” value (shortened to “fold reduction in affinity”) came out at 2 fold. Besides, in the assay with Rab8a_(1-176) [4], the binding result was “binds”. On to B3, for which, in the assay with Rab8a_(1-176) [4], the binding result was “binds”. As to B4, the binding result in the assay with Rab8a_(1-176) [4], with Rab10_(1-175) and with Rab15_(1-176) was “binds” each time. In the case of B5, in the assay with Rab8a_(1-176) [4], the binding result was “binds”. On to B6, for which the binding result with Rab8a_(1-176) [4] is given as “binds”. B7: in the assay with Rab8a_(1-176) [4], the binding result is listed as “binds”. In the case of B8, in the assay with Rab8a_(1-176) [4], the binding result is “binds”. The same measure, in the same setting: to B9 belongs “binds”; to B10, “binds”.

For the molecule B11, in the assay with Rab8a_(1-176) [5], the binding result is given as “binds”. The “fold reduction in affinity” value in assay [3] was 10 fold. B12: the “fold reduction in affinity” value in assay [3] is greater than 5 fold. Moreover, in the assay with Rab8a_(1-176) [4], the binding result was “binds”.

With B13, the “fold reduction in affinity” value in assay [3] was greater than 9 fold. Besides, the binding result with Rab8a_(1-176) [4] is “binds”. With B14, the binding result in assay [3] is reported as “binds”.

For the molecule B15, the “fold reduction in affinity” value in assay [3] was 6 fold. Besides, the binding result with Rab8a_(1-176) [4] is reported as “binds”.

Turning to B16, in assay [3], the “fold reduction in affinity” value was greater than 25 fold. Moreover, in the assay with Rab8a_(1-176) [4], the binding result is recorded as “binds”. Regarding B17, in assay [3], the “fold reduction in affinity” value was found to be 4 fold. The binding result with Rab8a_(1-176) [4] is “binds”. For B18, in that order: 6 fold and “binds”. With B19, in assay [2], the “KD of the high-affinity site (Ct-RBS2)” value stood at 11 nM, the “KD of the low-affinity site (Nt-RBS1)” value is 3730 nM and the “stoichiometry N” value amounted to 2.
